The values below come from PMC6591361, “Recombinant production of human α2-macroglobulin variants and interaction studies with recombinant G-related α2-macroglobulin binding protein and latent transforming growth factor-β2” (Scientific Reports, 2019).

Data set [1] concerns the target N-terminal part of human α2-macroglobulin (N-hα2M) (human) (UniProt P01023). The data set can be described thus: not stated; apparent mass of the purified hα2M fragments without reducing agents; method not named.
Data set [2] concerns the molecule itself. The data set can be described thus: SEC; Superose 6 10/300 (full-length recombinant hα2M) or Superdex 75 10/300 (pro-TGF-β2), buffer D (20 mM Tris-HCl, 150 mM sodium chloride, pH 7.5). (In general: In gel filtration, larger molecules generally elute earlier.)

With “N-terminal part of human α2-macroglobulin (N-hα2M) (from UniProt P01023 24-788) (domain or fragment)”, in data set [1], the stoichiometry N is 2.

B1: recombinant full-length human α2-macroglobulin from Expi293F cells (natural protein, UniProt P01023 24-1468, looked up)
chain: SVSGKPQYMVLVPSLLHTETTEKGCVLLSYLNETVTVSASLESVRGNRSLFTDLEAENDVLHCVAFAVPKSSSNEEVMFLTVQVKGPTQEFKKRTTVMVKNEDSLVFVQTDKSIYKPGQTVKFRVVSMDENFHPLNELIPLVYIQDPKGNRIAQWQSFQLEGGLKQFSFPLSSEPFQGSYKVVVQKKSGGRTEHPFTVEEFVLPKFEVQVTVPKIITILEEEMNVSVCGLYTYGKPVPGHVTVSICRKYSDASDCHGEDSQAFCEKFSGQLNSHGCFYQQVKTKVFQLKRKEYEMKLHTEAQIQEEGTVVELTGRQSSEITRTITKLSFVKVDSHFRQGIPFFGQVRLVDGKGVPIPNKVIFIRGNEANYYSNATTDEHGLVQFSINTTNVMGTSLTVRVNYKDRSPCYGYQWVSEEHEEAHHTAYLVFSPSKSFVHLEPMSHELPCGHTQTVQAHYILNGGTLLGLKKLSFYYLIMAKGGIVRTGTHGLLVKQEDMKGHFSISIPVKSDIAPVARLLIYAVLPTGDVIGDSAKYDVENCLANKVDLSFSPSQSLPASHAHLRVTAAPQSVCALRAVDQSVLLMKPDAELSASSVYNLLPEKDLTGFPGPLNDQDNEDCINRHNVYINGITYTPVSSTNEKDMYSFLEDMGLKAFTNSKIRKPKMCPQLQQYEMHGPEGLRVGFYESDVMGRGHARLVHVEEPHTETVRKYFPETWIWDLVVVNSAGVAEVGVTVPDTITEWKAGAFCLSEDAGLGISSTASLRAFQPFFVELTMPYSVIRGEAFTLKATVLNYLPKCIRVSVQLEASPAFLAVPVEKEQAPHCICANGRQTVSWAVTPKSLGNVNFTVSAEALESQELCGTEVPSVPEHGRKDTVIKPLLVEPEGLEKETTFNSLLCPSGGEVSEELSLKLPPNVVEESARASVSVLGDILGSAMQNTQNLLQMPYGCGEQNMVLFAPNIYVLDYLNETQQLTPEIKSKAIGYLNTGYQRQLNYKHYDGSYSTFGERYGRNQGNTWLTAFVLKTFAQARAYIFIDEAHITQALIWLSQRQKDNGCFRSSGSLLNNAIKGGVEDEVTLSAYITIALLEIPLTVTHPVVRNALFCLESAWKTAQEGDHGSHVYTKALLAYAFALAGNQDKRKEVLKSLNEEAVKKDNSVHWERPQKPKAPVGHFYEPQAPSAEVEMTSYVLLAYLTAQPAPTSEDLTSATNIVKWITKQQNAQGGFSSTQDTVVALHALSKYGAATFTRTGKAAQVTIQSSGTFSSKFQVDNNNRLLLQQVSLPELPGEYSMKVTGEGCVYLQTSLKYNILPEKEEFPFALGVQTLPQTCDEPKAHTSFQISLSVSYTGSRSASNMAIVDVKMVSGFIPLKPTVKMLERSNHVSRTEVSSNHVLIYLDKVSNQTLSLFFTVLQDVPVRDLKPAIVKVYDYYETDEFAIAEYNAPCS
notes: human α2-macroglobulin, UniProt P01023, residues S24-S1468; also called recombinant hα2M from Expi293F cells; pS6-hα2M-H6; source: Expi293F cells, transiently transfected, secreted (mouse Ig κ leader), purified (Ni-NTA, IEC, SEC); not shown: His6, C-terminal, kept
Take B1: the “stoichiometry N” value in data set [2] was 4.

B2: Strep-tagged latent human transforming growth factor-β2 (pro-TGF-β2) (natural protein)
chain: LSLSTCSTLDMDQFMRKRIEAIRGQILSKLKLTSPPEDYPEPEEVPPEVISIYNSTRDLLQEKASRRAAACERERSDEEYYAKEVYKIDMPPFFPSENAIPPTFYRPYFRIVRFDVSAMEKNASNLVKAEFRVFRLQNPKARVPEQRIELYQILKSKDLTSPTQRYIDSKVVKTRAEGEWLSFDVTDAVHEWLHHKDRNLGFKISLHCPCCTFVPSNNYIIPNKSEELEARFAGIDGTSTYTSGDQKTIKSTRKKNSGKTPHLLLMLLPSYRLESQQTNRRKKRALDAAYCFRNVQDNCCLRPLYIDFKRDLGWKWIHEPKGYNANFCAGACPYLWSSDTQHSRVLSLYNTINPEASASPCCVSQDLEPLTILYYIGKTPKIEQLSNMIVKSCKCS
notes: residues from the construct between the tag and L21; human pro-TGF-β2 (LAP plus mature TGF-β2), UniProt P61812, residues L21-S414; The purified protein was partially cleaved before A303 by host peptidases; also called Strep-tagged pro-TGF-β2; pS6-TGFB2-STREP; not shown: Strep-tag, N-terminal, kept
For the molecule B2, the “stoichiometry N” value in data set [2] came out at 2.

B3: N-terminally octahistidine-tagged latent human transforming growth factor-β2 (pro-TGF-β2) (natural protein)
chain: B2 chain
notes: residues from the construct between the tag and L21; human pro-TGF-β2 (LAP plus mature TGF-β2), UniProt P61812, residues L21-S414; Partially cleaved before A303 by host peptidases; also called N-terminally His6-tagged pro-TGF-β2; pS6-TGFB2-H8; not shown: His8, N-terminal, kept
With B3, the “stoichiometry N” value in data set [2] was 2.

Usually stoichiometry N stands for the number of molecules, sites or subunits per partner or assembly.
